Results from paper PMC6026317, “Molecular elements in FGF19 and FGF21 defining KLB/FGFR activity and specificity” (Molecular Metabolism, 2018).

Tests used:
[1] = biological target: T1, Soluble human FGFR1c/KLB receptor complex (FGFR1c ectodomain-Fc with soluble KLB) (human, UniProt P11362 22-376; Q86Z14 1-996); assay: AlphaScreen or HTRF; cell-free competition: biotinylated FGF21 on streptavidin donor beads, FGFR1c-Fc or FGFR4-Fc ectodomain on Protein A acceptor beads, human soluble KLB added to give the signal; 5 μg/ml heparin, 0.1% BSA; increasing doses of unlabelled protein or peptide displace biotinylated FGF21; details: both partners purified
T1 construct: human FGFR1c ectodomain fused to Fc, coupled to Protein A acceptor beads; human beta-Klotho (KLB) protein, called human soluble KLB; also called FGFR1/KLB complex; soluble FGFR1/KLB receptor complex; source: bought: R&D Systems (both chains)
T1 sequence (looked up) 1: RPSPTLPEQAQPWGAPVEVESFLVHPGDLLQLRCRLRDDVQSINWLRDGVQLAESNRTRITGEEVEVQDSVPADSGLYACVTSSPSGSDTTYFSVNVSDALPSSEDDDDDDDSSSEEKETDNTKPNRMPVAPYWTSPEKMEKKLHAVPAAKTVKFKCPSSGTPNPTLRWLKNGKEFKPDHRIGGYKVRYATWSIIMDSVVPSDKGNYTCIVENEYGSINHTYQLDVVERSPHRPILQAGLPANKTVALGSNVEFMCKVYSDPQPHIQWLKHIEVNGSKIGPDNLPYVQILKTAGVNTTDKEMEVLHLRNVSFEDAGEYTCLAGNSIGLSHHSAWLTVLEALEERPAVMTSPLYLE
T1 sequence (looked up) 2: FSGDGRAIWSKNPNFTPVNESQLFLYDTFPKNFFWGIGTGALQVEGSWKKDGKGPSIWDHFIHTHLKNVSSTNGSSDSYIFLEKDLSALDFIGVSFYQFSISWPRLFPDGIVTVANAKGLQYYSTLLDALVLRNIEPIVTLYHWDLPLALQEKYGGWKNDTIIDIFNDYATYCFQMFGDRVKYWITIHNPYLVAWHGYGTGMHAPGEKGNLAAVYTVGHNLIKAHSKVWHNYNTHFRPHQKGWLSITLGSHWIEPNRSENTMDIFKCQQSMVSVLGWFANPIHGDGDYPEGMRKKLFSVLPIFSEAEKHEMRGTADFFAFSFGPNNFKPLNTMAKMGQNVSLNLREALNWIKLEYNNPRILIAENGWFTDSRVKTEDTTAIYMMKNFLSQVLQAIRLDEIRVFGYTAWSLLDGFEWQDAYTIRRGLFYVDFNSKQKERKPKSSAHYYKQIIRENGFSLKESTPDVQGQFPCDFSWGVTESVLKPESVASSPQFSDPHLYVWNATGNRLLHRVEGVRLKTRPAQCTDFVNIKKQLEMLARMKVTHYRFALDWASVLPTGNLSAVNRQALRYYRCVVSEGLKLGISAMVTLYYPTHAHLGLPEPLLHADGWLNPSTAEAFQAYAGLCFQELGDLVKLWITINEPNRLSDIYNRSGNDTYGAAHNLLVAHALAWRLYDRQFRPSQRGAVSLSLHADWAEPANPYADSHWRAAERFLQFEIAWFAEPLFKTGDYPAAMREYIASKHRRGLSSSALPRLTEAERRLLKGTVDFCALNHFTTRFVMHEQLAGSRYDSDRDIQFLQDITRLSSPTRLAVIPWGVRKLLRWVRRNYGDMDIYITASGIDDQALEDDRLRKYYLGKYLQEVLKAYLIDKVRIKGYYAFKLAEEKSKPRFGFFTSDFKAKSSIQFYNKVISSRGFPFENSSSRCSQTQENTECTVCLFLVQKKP

[2] = biological target: T2, Soluble human FGFR4/KLB receptor complex (FGFR4 ectodomain-Fc with soluble KLB) (human, UniProt P22455 22-369; Q86Z14 1-996); assay: as above; details: both partners purified
T2 construct: human FGFR4 ectodomain fused to Fc, coupled to Protein A acceptor beads; human beta-Klotho (KLB) protein, called human soluble KLB; also called hFGFR4/KLB; source: bought: R&D Systems (both chains)
T2 sequence (looked up) 1: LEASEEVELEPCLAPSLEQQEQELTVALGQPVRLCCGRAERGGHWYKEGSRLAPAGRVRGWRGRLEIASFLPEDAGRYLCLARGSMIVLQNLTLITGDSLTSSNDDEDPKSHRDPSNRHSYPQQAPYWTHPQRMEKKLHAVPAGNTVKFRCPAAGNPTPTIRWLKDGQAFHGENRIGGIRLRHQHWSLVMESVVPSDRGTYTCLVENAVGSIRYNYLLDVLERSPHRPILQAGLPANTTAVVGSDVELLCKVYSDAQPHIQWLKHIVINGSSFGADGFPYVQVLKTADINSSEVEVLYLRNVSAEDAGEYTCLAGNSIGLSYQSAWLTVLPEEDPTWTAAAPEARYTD
T2 sequence (looked up) 2: T1 sequence (looked up) 2

IC50 [1]: 123 nM | IC50 [2]: 1220 nM
B1: Human FGF21 (1-181) (ligand, UniProt Q9NSA1 29-209, looked up)
chain: HPIPDSSPLLQFGGQVRQRYLYTDDAQQTEAHLEIREDGTVGGAADQSPESLLQLKALKPGVIQILGVKTSRFLCQRPDGALYGSLHFDPEACSFRELLLEDGYNVYQSEAHGLPLHLPGNKSPHRDPAPRGPARFLPLPGLPPALPEPPGILAPQPPDVGSSDPLSMVGPSQGRSPSYAS
notes: also called fibroblast growth factor 21; native FGF21; source: E. coli OrigamiB (DE3), purified (Ni-NTA, SUMO protease digestion, Q-Sepharose)
